Measurements: article PMC4066776, “Molecular determinants of the DprA−RecA interaction for nucleation on ssDNA”

Molecular target: T1, WT DprA (Streptococcus pneumoniae, UniProt Q8DPI7 1-282)
T1 sequence: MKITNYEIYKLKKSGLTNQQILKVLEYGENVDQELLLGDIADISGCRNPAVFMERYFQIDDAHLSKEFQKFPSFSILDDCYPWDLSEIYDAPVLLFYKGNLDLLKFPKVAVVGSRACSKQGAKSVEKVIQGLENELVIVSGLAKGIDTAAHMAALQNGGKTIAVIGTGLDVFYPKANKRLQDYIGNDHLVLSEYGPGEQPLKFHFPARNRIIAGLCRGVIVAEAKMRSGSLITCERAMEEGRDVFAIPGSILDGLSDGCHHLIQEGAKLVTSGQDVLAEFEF
Experiment: fluorescence anisotropy; Pull-down: 200 mM NaCl, 20 mM Tris-HCl pH 7.5, 20 C, 30 min; anisotropy buffer not in the material
Settings: protein: recombinant; chain copies: 2; label: fluorescein

Does TTTTTTTTTTTTTTTTTTTT (ssDNA) [dT20] bind?
Result: binds
